Among the data in paper PMC5068707 (PLoS Pathogens, 2016) are binding result and Kd values, retold here.

What all share (test): ITC
(In general: Isothermal titration calorimetry measures the heat released or taken up as one component is titrated into another.)

The target in assay [1] is T1, SUDV VP30 CTD (139–288) (Sudan ebolavirus (SUDV), UniProt Q5XX03 139-288).
T1 sequence: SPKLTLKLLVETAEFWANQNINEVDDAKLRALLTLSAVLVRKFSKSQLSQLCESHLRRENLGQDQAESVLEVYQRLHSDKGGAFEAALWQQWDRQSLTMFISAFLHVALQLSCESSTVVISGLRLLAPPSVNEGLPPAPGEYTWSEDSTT
The following applies: both partners purified.

The target in a further assay is T2, MARV VP30 CTD (146–281) (Marburg virus (MARV), UniProt P35258 146-281).
T2 chain: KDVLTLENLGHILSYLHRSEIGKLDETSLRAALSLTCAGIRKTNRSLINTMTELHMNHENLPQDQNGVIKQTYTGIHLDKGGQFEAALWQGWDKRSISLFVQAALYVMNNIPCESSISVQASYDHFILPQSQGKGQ

Assay [2] has as its target T3, SUDV VP30 CTD (139–288) (Sudan ebolavirus (SUDV), UniProt Q5XX03 139-288).
T3 chain: T1 sequence

Assay [3] addresses T4, Ebola virus VP30 C-terminal domain (amino acids 139–288) (Ebola virus (EBOV), UniProt Q05323 139-288).
T4 chain: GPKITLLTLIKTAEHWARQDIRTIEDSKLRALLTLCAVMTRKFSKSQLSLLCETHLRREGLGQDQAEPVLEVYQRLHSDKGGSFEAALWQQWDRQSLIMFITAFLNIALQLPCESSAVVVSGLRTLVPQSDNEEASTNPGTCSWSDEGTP

B1: EBOV NP 600–617 fused to T4 lysozyme (peptide)
chain: RTPTVAPPAPVYRDHSEK
In the case of B1, in the assay with SUDV VP30 CTD (139–288) [1], the binding result is “binds”. In addition, the Kd in the assay with MARV VP30 CTD (146–281) was determined as 35 µM; with SUDV VP30 CTD (139–288) [2] it was 4.9 µM.

B2: SUDV NP peptide (600–617) fused to T4 lysozyme (peptide)
chain: NTPTVAPPAPVYKDTGVD
On to B2, for which the Kd amounted to 70 µM with MARV VP30 CTD (146–281), 9.5 µM in assay [3] and 7.98 µM in the assay with SUDV VP30 CTD (139–288) [2].

B3: MARV NP peptide (552–569) fused to T4 lysozyme (peptide)
chain: EQGVDLPPPPLYAQEKRQ
The molecule B3 displayed a Kd with SUDV VP30 CTD (139–288) [2] of 27.1 µM.

The term Kd denotes the constant that tells how readily two partners part at equilibrium. Low values mean higher affinity, high ones lower affinity.
